{"source": "IntAct's records for PubMed 18647389", "parents": {"B1": {"name": "RalBP1-associated Eps domain-containing protein 2 (Homo sapiens), Q8NFH8 (parent)", "chain": "MEAAAAAAAAAAAAAAAGGGCGSGPPPLLLSEGEQQCYSELFARCAGAAGGGPGSGPPEAARVAPGTATAAAGPVADLFRASQLPAETLHQITELCGAKRVGYFGPTQFYIALKLIAAAQSGLPVRIESIKCELPLPRFMMSKNDGEIRFGNPAELHGTKVQIPYLTTEKNSFKRMDDEDKQQETQSPTMSPLASPPSSPPHYQRVPLSHGYSKLRSSAEQMHPAPYEARQPLVQPEGSSSGGPGTKPLRHQASLIRSFSVERELQDNSSYPDEPWRITEEQREYYVNQFRSLQPDPSSFISGSVAKNFFTKSKLSIPELSYIWELSDADCDGALTLPEFCAAFHLIVARKNGYPLPEGLPPTLQPEYLQAAFPKPKWDCQLFDSYSESLPANQQPRDLNRMEKTSVKDMADLPVPNQDVTSDDKQALKSTINEALPKDVSEDPATPKDSNSLKARPRSRSYSSTSIEEAMKRGEDPPTPPPRPQKTHSRASSLDLNKVFQPSVPATKSGLLPPPPALPPRPCPSQSEQVSEAELLPQLSRAPSQAAESSPAKKDVLYSQPPSKPIRRKFRPENQATENQEPSTAASGPASAATMKPHPTVQKQSSKQKKAIQTAIRKNKEANAVLARLNSELQQQLKEVHQERIALENQLEQLRPVTVL"}, "B2": {"name": "RalBP1-associated Eps domain-containing protein 2 (Homo sapiens), Q8NFH8 (parent)", "chain": "B1 chain", "partner": "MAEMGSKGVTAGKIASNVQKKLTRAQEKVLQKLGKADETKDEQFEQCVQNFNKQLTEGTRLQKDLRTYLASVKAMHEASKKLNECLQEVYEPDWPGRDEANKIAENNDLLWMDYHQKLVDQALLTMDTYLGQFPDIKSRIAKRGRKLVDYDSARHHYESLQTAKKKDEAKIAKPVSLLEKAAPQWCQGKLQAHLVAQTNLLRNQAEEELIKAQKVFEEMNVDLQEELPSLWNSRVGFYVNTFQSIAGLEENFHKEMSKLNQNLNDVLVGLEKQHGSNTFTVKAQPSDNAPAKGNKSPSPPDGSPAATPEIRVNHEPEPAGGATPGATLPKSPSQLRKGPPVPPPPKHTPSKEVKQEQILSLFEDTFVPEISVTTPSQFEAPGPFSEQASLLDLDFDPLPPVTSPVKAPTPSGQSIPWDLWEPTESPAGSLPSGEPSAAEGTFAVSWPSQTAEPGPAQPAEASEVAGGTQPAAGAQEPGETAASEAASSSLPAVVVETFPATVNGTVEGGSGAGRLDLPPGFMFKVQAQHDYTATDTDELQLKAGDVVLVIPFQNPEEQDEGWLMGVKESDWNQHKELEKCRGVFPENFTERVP"}}}
{"variants_of": "B1", "settings": "with grb2_human GRB2, P62993"}
{"variant": "P480A", "effect of a mutation on the interaction": "disrupting interaction"}
{"variants_of": "B1", "settings": "with grb2_human GRB2, P62993", "remark": "another data set of the same source"}
{"variant": "P484A", "effect of a mutation on the interaction": "disrupting interaction"}
{"variants_of": "B1", "settings": "with 1433z_human YWHAZ"}
{"variant": "S493A", "effect of a mutation on the interaction": "disrupting interaction"}
{"variants_of": "B1", "settings": "with grb2_human GRB2, P62993", "remark": "another data set of the same source"}
{"variant": "R483A", "effect of a mutation on the interaction": "disrupting interaction"}
{"variants_of": "B2", "settings": "with bin1_human BIN1, O00499"}
{"variant": "R483A", "effect of a mutation on the interaction": "decreasing interaction"}
{"variants_of": "B2", "settings": "with bin1_human BIN1, O00499", "remark": "another data set of the same source"}
{"variant": "R483A", "effect of a mutation on the interaction": "disrupting interaction strength"}
{"variants_of": "B2", "settings": "with bin1_human BIN1, O00499", "remark": "another data set of the same source"}
{"variant": "P447A", "effect of a mutation on the interaction": "disrupting interaction"}
